This note sets out measurements from patent US20230303666A1.

The target of the test is SARS-CoV-2 S on pseudotyped lentivirus (pCMV-SARS2deltaC-gp41) (SARS-CoV-2) (UniProt P0DTC2). Description: cell-based or functional assay.

Nb21.t (VHH) had an IC50 of pseudovirus neutralization of 0.244 nM.
